Data published in patent publication US20220112288A1 (published 2022).

Assays:
[1] = biological target: T1, human CD8 on human pan T cells (CD4-negative population) (human, UniProt P01732 22-235; P10966 22-210); test: flow cytometry, 20 nM antibody on human pan T cells, A647 anti-human IgG Fc; geomean ratio in CD4-negative population
T1 construct: whole, on cells; Target is CD8 as it stands on primary human pan T cells

[2] = biological target: T2, human CD4 on cells (SKW3 cells; human PBMCs) (human, UniProt P01730 26-458); test: SKW3 FACS binning; competitor OKT4-A488 added after supernatant (background 2163, max binding 8200)
T2 construct: whole, on cells; SKW3 CD4 knockout cells served as the negative cell line for the WT vs KO ratios; also called hCD4; SKW3 WT

[3] = biological target: T2, human CD4 on cells (SKW3 cells; human …); test: SKW3 FACS binning; competitor RPA-T4-PE-Dazzle 594 added after supernatant (background 783, max binding 15000)
huCD4-HIS = biological target: T3, huCD4-HIS (human, UniProt P01730 26-390, limits assumed); test: ELISA binning; competitor Ibalizumab, 100 ng/mL huCD4-HIS, anti-HIS HRP detection (background 45, max binding 3000000)
T3 construct: Named only in the head of the ELISA binning column; not shown: HIS tag

[4] = biological target: T2, human CD4 on cells (SKW3 cells; human …); test: FACS confirmation, supernatant on human PBMCs, anti-mFc 647, CD4+ gate
[5] = biological target: T2, human CD4 on cells (SKW3 cells; human …); test: FACS primary screen, non-clonal hybridoma supernatant; SKW3 WT vs SKW3 CD4 KO cells, anti-mFc-647
[6] = biological target: T2, human CD4 on cells (SKW3 cells; human …); test: FACS confirmation, supernatant on SKW3 WT cells, anti-mFc 647 (Bkrd gMFI = 3300)
[7] = biological target: T2, human CD4 on cells (SKW3 cells; human …); test: FACS confirmation, supernatant on human PBMCs, anti-mFc 647, percent of viable cells
[8] = biological target: T2, human CD4 on cells (SKW3 cells; human …); test: FACS confirmation, supernatant on SKW3 WT cells, anti-hu Kappa FITC (Bkrd gMFI = 2500)
[9] = biological target: T2, human CD4 on cells (SKW3 cells; human …); test: FACS primary screen, non-clonal hybridoma supernatant; SKW3 WT vs SKW3 CD4 KO cells, anti-hKappa-FITC
[10] = biological target: T2, human CD4 on cells (SKW3 cells; human …); test: SKW3 FACS binning; competitor OKT4a added after supernatant, anti-hu A647 secondary (background 5000, max binding 35000)

T1 sequence (P01732 22-235, chain 1 of 2): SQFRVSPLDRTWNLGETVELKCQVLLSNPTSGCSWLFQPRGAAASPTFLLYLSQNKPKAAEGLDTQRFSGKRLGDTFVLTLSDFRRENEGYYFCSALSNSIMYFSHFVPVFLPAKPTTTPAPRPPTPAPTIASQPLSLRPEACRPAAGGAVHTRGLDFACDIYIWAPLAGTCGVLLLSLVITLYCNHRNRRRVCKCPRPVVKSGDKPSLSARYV
T1 sequence (P10966 22-210, chain 2 of 2): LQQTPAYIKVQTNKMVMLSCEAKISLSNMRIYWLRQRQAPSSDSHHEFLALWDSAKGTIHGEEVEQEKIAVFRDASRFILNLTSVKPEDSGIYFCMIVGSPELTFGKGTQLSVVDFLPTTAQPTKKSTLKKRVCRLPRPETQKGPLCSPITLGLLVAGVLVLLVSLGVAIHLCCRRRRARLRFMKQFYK

Cell Binding to Human PanT Signal/Background (of CD4 negative population) [1] [signal/background] | OKT4 A488 signal in binning [2] | RPA-T4-PE-Dazzle 594 signal in binning [3] | Ibalizumab ELISA binning signal (huCD4-HIS) | CD4+ gate RL1 Binding [4] | SKW3 WT vs KO anti-mFc-647 [5] [fold] | gMFI [6] [gMFI] | gMFI [8] [gMFI] | SKW3 WT vs KO anti-hKappa-FITC [9] [fold] | OKT4a anti-hu A647 signal in binning [10] | Binder | CD4+ Percent Bound of Viable [7] [%]
1610 |  |  |  |  |  |  |  |  |  | CD8B324 (antibody, human IgG1, kappa, V domains shown, Full-length human IgG1, kappa) VH: QVQLQQPGADLVKPGASVKLSCKASGYTSTSHWIHWVKQRPGQGLEWIGNIYPGSSSTNYNEKFKRMATLTVDTSSSTVYMVLSSLTSDDSAVYYCARHSPGHRDYAMDYWGLGTSVTVSS VL: DIVMTQSQKFMPTTVGDRVSITCKASQNVGTAVAWYQQKPGQSPKLLIASASNRYTGVPDRFTGSGSGTDFTLTISTMQSEDLADYFCQQYSTYPLTFGAGTKLEMKR | 
 | 7980 | 13300 | 230000 | 258000 | 2.7 | 9180 | 3140 | 1 | 42000 | 75110_08A13A (antibody, V domains shown, Tested as non-clonal hybridoma supernatant (AlivaMab Mouse Kappa), detected with anti-mouse Fc and anti-human kappa) VH: EVQLVESGGGLVQPGGSLRLSCAASGFIFSSYWMSWVRQAPGKGLEWVANIKQDGSEKYYMDSVKGRFTISRDNAKNSLYLQMNSLRAEDTAVYYCARDNSYYYYGMDVWGQGTTVTVSS VL: AIQMTQSPSSLSASVGDRVTITCRASQGIRDDLGWYQQKPGKAPKLLIFAASSLQSGVPSSFSGSGSGTDFTLTISSLQPEDFATYYCLHHYNYPYTFGQGTKLEIK | 29
 | 8730 | 15800 | 1.99e+06 | 296000 | 10.3 | 24800 | 6660 | 3.3 | 32200 | 75110_02K11A (antibody, V domains shown, Tested as non-clonal hybridoma supernatant (AlivaMab Mouse Kappa), detected with anti-mouse Fc and anti-human kappa) VH: QVQLQESGPGLVKPSQTLSLTCTVSGGSISSGFYYWTWIRQHPGKGLEWIGYISYSGNTYYNPSFKSRLTISVDTSKSQFSLKLSSVTAADTAVYYCARDRPSNFDAFDIWGQGTMVTVSS VL: not shown | 29
 | 9920 | 14000 | 1.26e+06 | 241000 | 4.1 | 13800 | 5140 | 1.9 | 15900 | 75110_03I23A (antibody, V domains shown, Tested as non-clonal hybridoma supernatant (AlivaMab Mouse Kappa), detected with anti-mouse Fc and anti-human kappa) VH: QVQLQESGPGLVKPSETLSLTCTASGGSITSYYWNWIRQPAGKGLEWIGRIYTSGSTNYNPSLKSRVTMSVDTSKNQFSLKLSSVTAADTAVYYCARDPGYSDAFNIWGQGTMVTVSS VL: not shown | 28
1980 |  |  |  |  |  |  |  |  |  | CD8B337 (antibody, human IgG1, kappa, V domains shown, Full-length human IgG1, kappa) VH: QVTLKESGPGKVQPSQTLSLTCSFSGFSLSTSGMGVSWIRKPSGKGLEWLAHIFWDDDRRYKSSLKSRLTISKDTSSNQVFLMITSVDTADSATYYCARRVGYGDYAYFDVWGAGTTVTVSS VL: DIQMTQYPASLSVSVGETVTITCRASENIYSDLAWYQQKQGKSPQLLVYAATNLADGVPSRFSGSGSGTQYSLKINSLQSEDFGNYYCQHFWGTPWTFGGGTKLEIKR | 
 | 9490 | 16500 | 1.78e+06 | 308000 | 14.7 | 34900 | 6530 | 3.7 | 36200 | 75110_01C18A (antibody, V domains shown, Tested as non-clonal hybridoma supernatant (AlivaMab Mouse Kappa), detected with anti-mouse Fc and anti-human kappa) VH: EVQLVESGGGLIQPGGSLRLSCAASGFTVSSNYMNWVRQAPGKGLEWVSVIYAGDNTYSADSVKGRFTISRDNSNNTLCLQMNSLRAEDTAVYYCAREGGTTGAFDIWGQGTMVTVSS VL: DIQMTQSPSSVSASVGDRVTITCRASQGINSWLAWYQQKPGKAPKLLIYAASSLQSGVPSRFSGSGSGTDFTLTISSLQPEDFATYYCQQGNSFPYTFGQGTKLEIK | 31
 | 7730 | 8460 | 215000 | 234000 | 6.2 | 30900 | 5830 | 1.8 | 33800 | 75110_07J24A (antibody, V domains shown, Tested as non-clonal hybridoma supernatant (AlivaMab Mouse Kappa), detected with anti-mouse Fc and anti-human kappa) VH: QAQLQESGPGLVKPSETLSLTCTVSGGSISSYYYNWIRQPAGKGLEWIGRIYTSGRTDYNPSLKSRVTMSADTSKNQFSLKLSSVTAADTAVYYCARDEGPTDAFDIWGQGTMVTVSS VL: DIVMTQTPLSLPVTPGEPASISCRSSQSLLDSDDGNTYLDWYLQKPGQSPHLLIYTLSYRASGVPDRFSGSGSGSDFTLKISRVEAEDVGVYYCMQRIEFPFTFGPGTKVDIK | 33
 | 9100 | 16500 | 1.64e+06 | 227000 | 9.4 | 38800 | 8320 | 3.2 | 35500 | 75110_05E05A (antibody, V domains shown, Tested as non-clonal hybridoma supernatant (AlivaMab Mouse Kappa), detected with anti-mouse Fc and anti-human kappa) VH: QVQLQESGPGLVKPSETLSLTCTVSGGSIGSYYWSWIRQPAGKGLEWIGRIYTSGSTNYNPSLKSRVTMSFDTSKNQFSLKLNSVTAADTAVYYCATDGGVGDSLDYWGQGTLVTVSS VL: DIVMTQTPLSLPVTPGEPASISCRSSQSLLDSDDGNTYLDWYLQKPGQSPQLLIYTLSYRASGVPDRFSGSGSGTDFTLKISRVEAEDVGVYYCMQHIEFPFTFGPGTKVDIK | 28
 | 8480 | 15300 | 1.86e+06 | 276000 | 4.7 | 17300 | 4280 | 1.6 | 41900 | 75110_02E22A (antibody, V domains shown, Tested as non-clonal hybridoma supernatant (AlivaMab Mouse Kappa), detected with anti-mouse Fc and anti-human kappa) VH: QVQLQESGPGLVKPSETLSLTCTVSGGSISSFYWSWIRQPAGKGLEWIGRIYTSGSTNYNPSLKSRVTMSVDTSKNQFSLKLSSVTAADTAVYYCARELEKRNYYGMDVWGQGTTVTVSS VL: DIQMTQSPSSLSASVGDRVTITCQASHDISNYLNWYQQKPGKAPKLLIFDASTLETGVPSRFSGSGSGTYFTFTIRSLQPEDIATYYCQQYDSLPLTFGGGTKVEIK | 31
 | 9440 | 16800 | 1.89e+06 | 302000 | 2.9 | 27200 | 7430 | 1.6 | 34000 | 75110_04H17A (antibody, V domains shown, Tested as non-clonal hybridoma supernatant (AlivaMab Mouse Kappa), detected with anti-mouse Fc and anti-human kappa) VH: QVQLQESGPGLVKPSETLSLTCTVSGGSISTYYWSWIRQSAGKGLEWIGRIYTSERPNYNPSLKSRVTMSVDTSKNQFSLKLNSVSAADTAVYYCARELERPYYYGMDVWGQGTTVTVSS VL: DVQMTQSPSSLSASVGGRVTITCQASQDISNYLNWYQQKPGKAPKLLIYYASNLETGVPSRFSGSGSGTDFTFTISSLQPEDFATYYCQQYDNLPLTFGGGTKVEIK | 30
 | 7370 | 17100 | 2.11e+06 | 174000 | 4.5 | 21900 | 6790 | 2.3 | 29200 | 75110_04D20A (antibody, V domains shown, Tested as non-clonal hybridoma supernatant (AlivaMab Mouse Kappa), detected with anti-mouse Fc and anti-human kappa) VH: QVQLQESGPGLVKPSETLSLTCTVSNGSISDYYWSWIRQPAGKGLEWIGRIYTSGSTNYNPSLKSRITMSVDTSKNQFSLELSSVTAADTAVYYCARELERYYFYGVDVWGQGTTVTVSS VL: not shown | 28
318 |  |  |  |  |  |  |  |  |  | CD8B366 (antibody, human IgG1, kappa, V domains shown, Full-length human IgG1, kappa) VH: EVQLQQSGPELVRPGASVKLSCTASGFNIKDDYIHWVKQRPEQGLEWIGRIDPANGNPRYAPKFQDKATLTADTSSNTAYLQLSSLTSEDTAVYYCARDDEGYYYFDVWGAGTSVTVSS VL: DIKMTQSPSYLAASPGETITINCRASKSISKYLAWYQEKPGKTNKVLIYSGSTLQSGIPSRFSGSGSGTDFTLTISSLEPEDFAIYYCQQHNEYPLTFGDGTRLEIKR | 
